T1: full-length human MMRN2 with a His tag overexpressed in HEK293T cells (human, UniProt Q9H8L6 23-949)
T1 construct: Used as lysate of transfected HEK293T cells; also called hMMRN2; MMRN2 protein lysate; not shown: His tag of the pHL-Avitag3 vector
T1 sequence: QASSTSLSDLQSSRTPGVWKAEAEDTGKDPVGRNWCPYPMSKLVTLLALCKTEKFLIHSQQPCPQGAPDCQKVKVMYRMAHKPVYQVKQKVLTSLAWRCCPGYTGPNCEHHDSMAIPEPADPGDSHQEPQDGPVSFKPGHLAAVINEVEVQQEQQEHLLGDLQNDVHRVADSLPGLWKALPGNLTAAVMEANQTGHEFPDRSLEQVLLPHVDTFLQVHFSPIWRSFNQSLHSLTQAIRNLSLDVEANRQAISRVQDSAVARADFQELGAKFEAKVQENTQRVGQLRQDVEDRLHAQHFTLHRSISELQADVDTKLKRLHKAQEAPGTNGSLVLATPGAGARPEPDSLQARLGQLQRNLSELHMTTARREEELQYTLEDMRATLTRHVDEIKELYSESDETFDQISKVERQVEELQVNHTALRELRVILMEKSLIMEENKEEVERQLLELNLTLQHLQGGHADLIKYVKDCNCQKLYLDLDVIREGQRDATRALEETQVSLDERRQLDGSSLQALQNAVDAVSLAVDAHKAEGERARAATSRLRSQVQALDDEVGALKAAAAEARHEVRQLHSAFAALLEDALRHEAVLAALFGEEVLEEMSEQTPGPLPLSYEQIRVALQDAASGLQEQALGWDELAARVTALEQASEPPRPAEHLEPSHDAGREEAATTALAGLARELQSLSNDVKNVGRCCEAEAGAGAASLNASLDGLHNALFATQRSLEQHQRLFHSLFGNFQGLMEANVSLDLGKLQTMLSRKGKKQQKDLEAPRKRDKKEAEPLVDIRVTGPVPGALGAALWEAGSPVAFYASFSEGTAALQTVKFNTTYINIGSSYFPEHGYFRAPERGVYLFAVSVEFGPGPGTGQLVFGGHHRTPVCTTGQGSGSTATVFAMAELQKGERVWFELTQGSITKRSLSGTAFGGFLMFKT

T2: CLEC14A with regions 122-142 of CD141 (human, UniProt Q86T13 22-490)
T2 construct: also called 122-142 chimera; not shown: C-terminal GFP tag (all constructs have one)
T2 sequence: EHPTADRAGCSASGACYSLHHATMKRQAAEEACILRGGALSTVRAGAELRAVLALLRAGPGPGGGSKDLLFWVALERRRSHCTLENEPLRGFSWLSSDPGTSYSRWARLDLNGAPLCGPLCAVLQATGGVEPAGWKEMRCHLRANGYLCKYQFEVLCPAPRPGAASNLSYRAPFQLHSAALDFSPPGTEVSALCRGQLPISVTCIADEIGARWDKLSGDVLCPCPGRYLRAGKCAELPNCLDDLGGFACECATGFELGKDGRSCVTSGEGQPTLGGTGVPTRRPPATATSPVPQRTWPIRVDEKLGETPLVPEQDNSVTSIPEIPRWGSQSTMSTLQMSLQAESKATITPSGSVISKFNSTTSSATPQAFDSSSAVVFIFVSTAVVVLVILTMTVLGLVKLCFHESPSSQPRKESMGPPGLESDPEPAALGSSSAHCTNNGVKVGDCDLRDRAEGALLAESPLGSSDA

B1: CLEC14A with regions 97-108 of CD141 (receptor)
chain: EHPTADRAGCSASGACYSLHHATMKRQAAEEACILRGGALSTVRAGAELRAVLALLRAGPGPGGGSKDLLFWVALQLPPGCGDPKRLPLRGFSWLSSDPGGLESDTLQWVEEPQRSCTARRCAVLQATGGVEPAGWKEMRCHLRANGYLCKYQFEVLCPAPRPGAASNLSYRAPFQLHSAALDFSPPGTEVSALCRGQLPISVTCIADEIGARWDKLSGDVLCPCPGRYLRAGKCAELPNCLDDLGGFACECATGFELGKDGRSCVTSGEGQPTLGGTGVPTRRPPATATSPVPQRTWPIRVDEKLGETPLVPEQDNSVTSIPEIPRWGSQSTMSTLQMSLQAESKATITPSGSVISKFNSTTSSATPQAFDSSSAVVFIFVSTAVVVLVILTMTVLGLVKLCFHESPSSQPRKESMGPPGLESDPEPAALGSSSAHCTNNGVKVGDCDLRDRAEGALLAESPLGSSDA
notes: also called this mutant; not shown: C-terminal GFP tag (all constructs have one)

How the values were obtained:
[1] = target: T1, full-length human MMRN2 with a His tag …; test: method for MMRN2 not told
[2] = target: T1, full-length human MMRN2 with a His tag …; test: far Western blot of HEK293T lysates with MMRN2 protein lysate, non-reduced
Text: FIG. 13—MMRN2 directly binds to either the C-type lectin or sushi domain of CLEC14A under non-reduced conditions. HEK293T cells were mock transfected or transfected with pCS2 vectors containing CLEC14A wild type (WT) or constructs with each major domain deleted (Δ) with an N-terminal HA tag. Upon far western blotting with MMRN2 protein lysate, binding can be seen in all mutants except those missing the C-type lectin domain (CTLD) or the sushi domain. An anti-HA blot was included to show all mutant proteins were expressed.

[3] = target: T2, CLEC14A with regions 122-142 of CD141; test: flow cytometry; the filing says the chimera did not fold correctly
[4] = target: B1; test: flow cytometry on HEK293T cells
[5] = target: Chimera 6 (CLEC14A with SUSHI of CD141) fused to GFP tag; test: flow cytometry on GFP-gated HEK293T cells
Experimental: (§1) FIG. 15—Binding of CRT antibodies was analysed using flow cytometry. All constructs have a C-terminus GFP tag so green cells were gated and stained red. All CRT antibodies bind to CLEC14A wild type with a C terminal GFP tag expressed in HEK293T cells. None of the CRT antibodies bind to wild type thrombomodulin with GFP tag expressed in HEK293T cells.
(§2) Binding of CRT antibodies was analysed using flow cytometry. All constructs have a C-terminus GFP tag so green cells were gated and stained red. All CRT antibodies bind WT CLEC14A and—as expected—none binds to WT CD141 (FIG. 15). In addition, none of the antibodies bound to Chimera 5 (except slight binding by CRT2) and all of the antibodies bind to Chimera 6 (except CRT2) (FIG. 15). This confirms that the binding site of the antibodies CRT1, 3, 4 and 5 and MMRN2 are within the C type lectin domain. It is possible that CRT2 binds on a region between the CTLD and sushi domain.

[6] = target: T3, wild type thrombomodulin with GFP tag expressed in HEK293T cells (UniProt P07204 19-575); test: flow cytometry on GFP-gated HEK293T cells
T3 construct: whole, on cells; also called WT CD141; CD141; not shown: C-terminal GFP tag
Experimental: as §1, §2

T3 sequence (P07204 19-575): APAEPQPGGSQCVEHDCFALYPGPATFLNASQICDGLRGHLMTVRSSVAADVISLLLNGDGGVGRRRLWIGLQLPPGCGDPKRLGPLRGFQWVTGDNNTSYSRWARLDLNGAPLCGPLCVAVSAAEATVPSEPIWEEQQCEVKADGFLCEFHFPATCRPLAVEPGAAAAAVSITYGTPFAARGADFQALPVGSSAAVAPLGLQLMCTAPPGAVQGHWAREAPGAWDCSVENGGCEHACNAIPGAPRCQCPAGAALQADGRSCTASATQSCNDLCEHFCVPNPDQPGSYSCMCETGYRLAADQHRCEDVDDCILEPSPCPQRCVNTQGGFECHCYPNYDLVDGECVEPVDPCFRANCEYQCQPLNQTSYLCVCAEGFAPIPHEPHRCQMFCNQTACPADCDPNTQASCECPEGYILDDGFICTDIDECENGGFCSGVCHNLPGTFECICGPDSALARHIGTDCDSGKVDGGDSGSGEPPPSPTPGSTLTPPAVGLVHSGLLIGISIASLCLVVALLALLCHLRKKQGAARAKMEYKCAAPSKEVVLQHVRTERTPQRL

Row | Binder | binding result [1] | binding result [2] | binding result [3] | binding result [4] | binding result [5] | binding result [6]
1 | B1 | no binding | – | – | – | – | –
2 | HA-CLEC14A (CLEC14A wild type with an N-terminal HA tag) expressed in HEK293T cells (receptor, also called CLEC14A wild type (WT); not shown: N-terminal HA tag) EHPTADRAGCSASGACYSLHHATMKRQAAEEACILRGGALSTVRAGAELRAVLALLRAGPGPGGGSKDLLFWVALERRRSHCTLENEPLRGFSWLSSDPGGLESDTLQWVEEPQRSCTARRCAVLQATGGVEPAGWKEMRCHLRANGYLCKYQFEVLCPAPRPGAASNLSYRAPFQLHSAALDFSPPGTEVSALCRGQLPISVTCIADEIGARWDKLSGDVLCPCPGRYLRAGKCAELPNCLDDLGGFACECATGFELGKDGRSCVTSGEGQPTLGGTGVPTRRPPATATSPVPQRTWPIRVDEKLGETPLVPEQDNSVTSIPEIPRWGSQSTMSTLQMSLQAESKATITPSGSVISKFNSTTSSATPQAFDSSSAVVFIFVSTAVVVLVILTMTVLGLVKLCFHESPSSQPRKESMGPPGLESDPEPAALGSSSAHCTNNGVKVGDCDLRDRAEGALLAESPLGSSDA | – | binds | – | – | – | –
3 | CLEC14A monoclonal antibody C4 (antibody, V domains shown, Mouse monoclonal antibody raised against murine CLEC14A-Fc; The entries carry cloning residues (N-terminal MA on VH, C-terminal AA on VL); also called CRT4; clone C4) VH: QVQLQQSGAELMKPGASVKISCKATGYTFSSYWIEWVNRRPGHGLEWIGEILPGSGSTNYNEKFKGKATFTADTSSNTAYMQLSSLTSEDSAVYYCARGGDYDEEYYLMDYWGQGTTLTVSS VL: QIVLTQSPAIMSASPGEKVTMTCSASSSVSYMYWYQQKPGSSPRLLIYDTSNLASGVPVRFSGSGSGTSYSLTISRMEAEDAATYYCQQWSSYPLTFGAGTKLEIKR | – | – | no binding | no binding | binds | no binding
4 | CLEC14A monoclonal antibody C5 (antibody, V domains shown, CLEC14A monoclonal antibody; also called CRT5) VH: AEVQLQQSGAELMKPGASVKISCKATGYTFSSYWIEWVNQRPGHGLEWIGEILPGSGSTNYNEKFKGKATFTADTSSNTAYMQLSSLTSEDSAVYYCARGGDYDEEYYAMDYWGQGTSVTL VL: QIVLTQSPAIMSASPGEKVTMTCSASSSVSYMYWYQQKPGSSPRLLIYDTSNLASGVPVRFSGSGSGTSYSLTISRMEAEDGATYYCQQWSSYPLTFGAGTKLELKR | – | – | no binding | no binding | – | no binding

From patent publication US20180282418A1 (CANCER RESEARCH TECHNOLOGY, published 2018)
